Four substances from article PMC6048507 can be followed below.

Where two headings read alike, the source gives them in different places.

Assay [1] has as its target mavirus cysteine protease (MVP) (mavirus).
Assay [2] deals with mavirus penton protein (minor capsid protein, MV17), purified (mavirus). Kind of assay: crystal structure.
Assay [3] shares this target.
In assay [4] the target is mavirus major capsid protein, full-length (flMCP), purified capsomer (mavirus). Nature of the assay: crystal structure.
Assay [5] shares this target.
Assay [6] addresses mavirus major capsid protein truncated at the C terminus (MCPΔC, res. 1–516), purified capsomer (mavirus). Kind of assay: crystal structure.
Assay [7] has the same target.

The substance “mavirus cysteine protease (MVP) (enzyme)” yielded a stoichiometry N in assay [1] of 2.

Regarding “mavirus penton protein (minor capsid protein, MV17), purified (natural protein)”, the stoichiometry N in assay [2] and in assay [3] was 5 each time.

On to “mavirus major capsid protein, full-length (flMCP), purified capsomer (natural protein)”, for which the stoichiometry N in assay [4] and in assay [5] was 3 throughout.

Take “mavirus major capsid protein truncated at the C terminus (MCPΔC, res. 1–516), purified capsomer (domain or fragment)”: the stoichiometry N in assay [6] and in assay [7] was 3 throughout.
